The text below walks through data of US20160046684A1, “Methods and compositions for treatment of PTP1B-related diseases” (BROWN UNIVERSITY, priority 2014, published 2016).

B1: PTP1BY153F: PTP1B1-301 mutant with mutation in the L11 loop (protein, UniProt P18031 1-301, looked up, variant Y153F)
chain: MEMEKEFEQIDKSGSWAAIYQDIRHEASDFPCRVAKLPKNKNRNRYRDVSPFDHSRIKLHQEDNDYINASLIKMEEAQRSYILTQGPLPNTCGHFWEMVWEQKSRGVVMLNRVMEKGSLKCAQYWPQKEEKEMIFEDTNLKLTLISEDIKSYFTVRQLELENLTTQETREILHFHYTTWPDFGVPESPASFLNFLFKVRESGSLSPEHGPVVVHCSAGIGRSGTFCLADTCLLLMDKRKDPSSVDIKKVLLEMRKFRMGLIQTADQLRFSYLAVIEGAKFIMGDSSVQDQWKELSHEDLEP
B2: PTP1BG283P: PTP1B1-301 mutant with point mutation in the α7 helix (protein, UniProt P18031 1-301, looked up, variant G283P)
chain: MEMEKEFEQIDKSGSWAAIYQDIRHEASDFPCRVAKLPKNKNRNRYRDVSPFDHSRIKLHQEDNDYINASLIKMEEAQRSYILTQGPLPNTCGHFWEMVWEQKSRGVVMLNRVMEKGSLKCAQYWPQKEEKEMIFEDTNLKLTLISEDIKSYYTVRQLELENLTTQETREILHFHYTTWPDFGVPESPASFLNFLFKVRESGSLSPEHGPVVVHCSAGIGRSGTFCLADTCLLLMDKRKDPSSVDIKKVLLEMRKFRMGLIQTADQLRFSYLAVIEGAKFIMPDSSVQDQWKELSHEDLEP
B3: PTP1BL195A: PTP1B1-301 mutant with mutation in the α3 helix (protein, UniProt P18031 1-301, looked up, variant L195A)
chain: MEMEKEFEQIDKSGSWAAIYQDIRHEASDFPCRVAKLPKNKNRNRYRDVSPFDHSRIKLHQEDNDYINASLIKMEEAQRSYILTQGPLPNTCGHFWEMVWEQKSRGVVMLNRVMEKGSLKCAQYWPQKEEKEMIFEDTNLKLTLISEDIKSYYTVRQLELENLTTQETREILHFHYTTWPDFGVPESPASFLNFAFKVRESGSLSPEHGPVVVHCSAGIGRSGTFCLADTCLLLMDKRKDPSSVDIKKVLLEMRKFRMGLIQTADQLRFSYLAVIEGAKFIMGDSSVQDQWKELSHEDLEP
B4: PTP1BS190A: PTP1B1-301 mutant with mutation in the α3 helix (protein, UniProt P18031 1-301, looked up, variant S190A)
chain: MEMEKEFEQIDKSGSWAAIYQDIRHEASDFPCRVAKLPKNKNRNRYRDVSPFDHSRIKLHQEDNDYINASLIKMEEAQRSYILTQGPLPNTCGHFWEMVWEQKSRGVVMLNRVMEKGSLKCAQYWPQKEEKEMIFEDTNLKLTLISEDIKSYYTVRQLELENLTTQETREILHFHYTTWPDFGVPESPAAFLNFLFKVRESGSLSPEHGPVVVHCSAGIGRSGTFCLADTCLLLMDKRKDPSSVDIKKVLLEMRKFRMGLIQTADQLRFSYLAVIEGAKFIMGDSSVQDQWKELSHEDLEP
B5: PTP1BF196A: PTP1B1-301 mutant with mutation in the α3 helix (protein, UniProt P18031 1-301, looked up, variant F196A)
chain: MEMEKEFEQIDKSGSWAAIYQDIRHEASDFPCRVAKLPKNKNRNRYRDVSPFDHSRIKLHQEDNDYINASLIKMEEAQRSYILTQGPLPNTCGHFWEMVWEQKSRGVVMLNRVMEKGSLKCAQYWPQKEEKEMIFEDTNLKLTLISEDIKSYYTVRQLELENLTTQETREILHFHYTTWPDFGVPESPASFLNFLAKVRESGSLSPEHGPVVVHCSAGIGRSGTFCLADTCLLLMDKRKDPSSVDIKKVLLEMRKFRMGLIQTADQLRFSYLAVIEGAKFIMGDSSVQDQWKELSHEDLEP
B6: PTP1BK292A: PTP1B1-301 mutant with point mutation in the α7 helix (protein, UniProt P18031 1-301, looked up, variant K292A)
chain: MEMEKEFEQIDKSGSWAAIYQDIRHEASDFPCRVAKLPKNKNRNRYRDVSPFDHSRIKLHQEDNDYINASLIKMEEAQRSYILTQGPLPNTCGHFWEMVWEQKSRGVVMLNRVMEKGSLKCAQYWPQKEEKEMIFEDTNLKLTLISEDIKSYYTVRQLELENLTTQETREILHFHYTTWPDFGVPESPASFLNFLFKVRESGSLSPEHGPVVVHCSAGIGRSGTFCLADTCLLLMDKRKDPSSVDIKKVLLEMRKFRMGLIQTADQLRFSYLAVIEGAKFIMGDSSVQDQWAELSHEDLEP
B7: PTP1BE297A: PTP1B1-301 mutant with point mutation in the α7 helix (protein, UniProt P18031 1-301, looked up, variant E297A)
chain: MEMEKEFEQIDKSGSWAAIYQDIRHEASDFPCRVAKLPKNKNRNRYRDVSPFDHSRIKLHQEDNDYINASLIKMEEAQRSYILTQGPLPNTCGHFWEMVWEQKSRGVVMLNRVMEKGSLKCAQYWPQKEEKEMIFEDTNLKLTLISEDIKSYYTVRQLELENLTTQETREILHFHYTTWPDFGVPESPASFLNFLFKVRESGSLSPEHGPVVVHCSAGIGRSGTFCLADTCLLLMDKRKDPSSVDIKKVLLEMRKFRMGLIQTADQLRFSYLAVIEGAKFIMGDSSVQDQWKELSHADLEP
B8: PTP1BF194A: PTP1B1-301 mutant with mutation in the α3 helix (protein, UniProt P18031 1-301, looked up, fragment F194A)
chain: MEMEKEFEQIDKSGSWAAIYQDIRHEASDFPCRVAKLPKNKNRNRYRDVSPFDHSRIKLHQEDNDYINASLIKMEEAQRSYILTQGPLPNTCGHFWEMVWEQKSRGVVMLNRVMEKGSLKCAQYWPQKEEKEMIFEDTNLKLTLISEDIKSYYTVRQLELENLTTQETREILHFHYTTWPDFGVPESPASFLNALFKVRESGSLSPEHGPVVVHCSAGIGRSGTFCLADTCLLLMDKRKDPSSVDIKKVLLEMRKFRMGLIQTADQLRFSYLAVIEGAKFIMGDSSVQDQWKELSHEDLEP
B9: PTP1BL294A: PTP1B1-301 mutant with point mutation in the α7 helix (protein, UniProt P18031 1-301, looked up, variant L294A)
chain: MEMEKEFEQIDKSGSWAAIYQDIRHEASDFPCRVAKLPKNKNRNRYRDVSPFDHSRIKLHQEDNDYINASLIKMEEAQRSYILTQGPLPNTCGHFWEMVWEQKSRGVVMLNRVMEKGSLKCAQYWPQKEEKEMIFEDTNLKLTLISEDIKSYYTVRQLELENLTTQETREILHFHYTTWPDFGVPESPASFLNFLFKVRESGSLSPEHGPVVVHCSAGIGRSGTFCLADTCLLLMDKRKDPSSVDIKKVLLEMRKFRMGLIQTADQLRFSYLAVIEGAKFIMGDSSVQDQWKEASHEDLEP
B10: PTP1BD298A: PTP1B1-301 mutant with point mutation in the α7 helix (protein, UniProt P18031 1-301, looked up, variant D298A)
chain: MEMEKEFEQIDKSGSWAAIYQDIRHEASDFPCRVAKLPKNKNRNRYRDVSPFDHSRIKLHQEDNDYINASLIKMEEAQRSYILTQGPLPNTCGHFWEMVWEQKSRGVVMLNRVMEKGSLKCAQYWPQKEEKEMIFEDTNLKLTLISEDIKSYYTVRQLELENLTTQETREILHFHYTTWPDFGVPESPASFLNFLFKVRESGSLSPEHGPVVVHCSAGIGRSGTFCLADTCLLLMDKRKDPSSVDIKKVLLEMRKFRMGLIQTADQLRFSYLAVIEGAKFIMGDSSVQDQWKELSHEALEP
B11: PTP1BY152F: PTP1B1-301 mutant with mutation in the L11 loop (protein, UniProt P18031 1-301, looked up, variant Y152F)
chain: MEMEKEFEQIDKSGSWAAIYQDIRHEASDFPCRVAKLPKNKNRNRYRDVSPFDHSRIKLHQEDNDYINASLIKMEEAQRSYILTQGPLPNTCGHFWEMVWEQKSRGVVMLNRVMEKGSLKCAQYWPQKEEKEMIFEDTNLKLTLISEDIKSFYTVRQLELENLTTQETREILHFHYTTWPDFGVPESPASFLNFLFKVRESGSLSPEHGPVVVHCSAGIGRSGTFCLADTCLLLMDKRKDPSSVDIKKVLLEMRKFRMGLIQTADQLRFSYLAVIEGAKFIMGDSSVQDQWKELSHEDLEP

In one series the test system is PTP1B. Description: Phosphatase activity of PTP1B constructs against pNPP (enzyme assay). Type of series: biochemical, human. As to conditions: pNPP substrate, pH 7.5, 0.015 μM PTP1B (FIG. 27, 32A, 32B). As to the method:
Phosphatase activity of PTP1B against the general PTP/DUSP substrate, p-nitrophenyl phosphate (pNPP), was tested in 50 mM HEPES pH 7.5, 150 mM NaCl, 0.5 mM TCEP. 40 μl of enzyme at a 1.5 μM concentration was added to 60 μl of pNPP substrate resuspended in the reaction buffer. See, FIG. 25. The final concentrations of pNPP used in this experiment were […]. The enzyme was incubated with the substrate at 30° C. for 30 min, after which 100 μl of 1 M NaOH was added to a final concentration of 0.5 M NaOH to quench the reaction. Absorbance was measured at 405 nm and the final concentration of p-nitrophenol (pNP) was calculated using the molar extinction coefficient of 18000 M-1 cm-1. A control reaction in which substrate was incubated in the absence of enzyme was subtracted from all other experimental values. All experiments were performed in triplicate.
Enzyme assays were performed at pH 7.5 with 0.15 μM PTP1B to compare the activities of wild-type PTP1B1-301 to mutants with mutations in the L11 loop: PTP1BY152A/F, PTP1BY153A/F, and PTP1BYAYA. See, FIG. 17. […] Ibid. […] Ibid. […] Ibid. […] Ibid. […] Ibid. […] Ibid.
Enzyme assays were performed at pH 7.5 with 0.015 μM PTP1B to compare the activities of wild-type PTP1B1-301 to mutants with mutations in the α3 helix such as PTP1BN193A. See, FIG. 27. […] Ibid. […] Ibid. […] Ibid. […] Ibid. […] Ibid. […] Ibid.
An enzyme assay was used to compare the activity of wild-type PTP1B1-301 to the activity of PTP1B1-284 P185G. See, FIG. 15. Enzyme assays were performed at pH 7.5 with 0.015 μM PTP1B to compare the activities of wild-type PTP1B1-301 to mutants with mutations in the α7 helix. See, FIG. 32A. In one embodiment, these point mutations were made in an amino acid sequence substantially similar to SEQ ID NO: 2.
For B1, the Km – broadly, the concentration of substrate that gives half-maximal velocity – was determined as 620 ± 70 µM; the kcat – broadly, the number of substrate molecules converted per active site and unit of time at saturation – is 6.0 ± 0.2 s⁻¹.

On to B2, for which the Michaelis constant (Km) stood at 850 ± 70 µM and the catalytic constant (kcat) turned out to be 4.9 ± 0.2 s⁻¹.

As for B3, the Km stood at 290 ± 30 µM and the kcat was 4.1 ± 0.1 s⁻¹.

Take B4: the Km came out at 370 ± 50 µM and the kcat turned out to be 6.1 ± 0.3 s⁻¹.

Consider B5, for which the Km worked out at 320 ± 40 µM and the kcat amounted to 4.2 ± 0.2 s⁻¹.

With B6, the Km was determined as 380 ± 50 µM and the kcat worked out at 6.1 ± 0.3 s⁻¹.

As for B7, the Km amounted to 720 ± 120 µM and the kcat was 4.6 ± 0.3 s⁻¹.

Regarding B8, the Km is 390 ± 50 µM and the kcat was 5.3 ± 0.3 s⁻¹.

With B9, the Km turned out to be 730 ± 50 µM and the kcat worked out at 5.1 ± 0.1 s⁻¹.

As to B10, the Km came to 480 ± 100 µM and the kcat came to 6.3 ± 0.4 s⁻¹.

Staying with this series, now noted: pNPP substrate, pH 7.5, 0.15 μM PTP1B (FIG. 17).
As to B1, the Km is 900 ± 80 µM and the kcat is 3.4 ± 0.3 s⁻¹.

As to B11, the Km was 950 ± 40 µM and the kcat is 3.4 ± 0.1 s⁻¹.
